Test results: patent publication US20240425601A1 (University of California, published 2024)

Target: cell surface-expressed human αvβ8 (human, UniProt P06756 31-1048; P26012 43-769)
Assay: cell-based or functional assay

Chain of cell surface-expressed human αvβ8 (P06756 31-1048, chain 1 of 2): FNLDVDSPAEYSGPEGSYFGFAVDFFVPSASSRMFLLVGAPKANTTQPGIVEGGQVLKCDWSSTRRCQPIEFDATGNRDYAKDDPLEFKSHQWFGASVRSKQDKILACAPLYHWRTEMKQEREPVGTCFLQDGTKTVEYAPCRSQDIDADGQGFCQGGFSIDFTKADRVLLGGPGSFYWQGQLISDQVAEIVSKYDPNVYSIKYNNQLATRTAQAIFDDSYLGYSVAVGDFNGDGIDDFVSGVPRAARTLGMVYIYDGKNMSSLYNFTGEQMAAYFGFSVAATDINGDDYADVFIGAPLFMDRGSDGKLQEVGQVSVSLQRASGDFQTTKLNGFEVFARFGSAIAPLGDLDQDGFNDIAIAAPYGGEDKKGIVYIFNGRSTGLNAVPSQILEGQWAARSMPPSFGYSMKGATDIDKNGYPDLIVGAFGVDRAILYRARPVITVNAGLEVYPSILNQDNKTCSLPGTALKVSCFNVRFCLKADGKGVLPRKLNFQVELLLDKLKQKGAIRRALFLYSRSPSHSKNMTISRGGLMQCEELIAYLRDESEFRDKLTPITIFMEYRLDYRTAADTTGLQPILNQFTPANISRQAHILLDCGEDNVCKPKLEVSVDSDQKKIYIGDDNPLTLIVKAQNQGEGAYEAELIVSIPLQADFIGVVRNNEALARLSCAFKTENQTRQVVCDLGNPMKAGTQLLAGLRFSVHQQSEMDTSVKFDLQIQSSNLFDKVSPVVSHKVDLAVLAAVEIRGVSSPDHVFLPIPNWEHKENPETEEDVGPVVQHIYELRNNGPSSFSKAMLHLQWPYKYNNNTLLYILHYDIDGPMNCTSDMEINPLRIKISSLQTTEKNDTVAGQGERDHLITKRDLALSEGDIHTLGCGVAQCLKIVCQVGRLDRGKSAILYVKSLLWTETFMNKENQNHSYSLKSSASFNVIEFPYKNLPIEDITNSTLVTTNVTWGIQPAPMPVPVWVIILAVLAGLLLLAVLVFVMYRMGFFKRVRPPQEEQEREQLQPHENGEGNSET
Chain of cell surface-expressed human αvβ8 (P26012 43-769, chain 2 of 2): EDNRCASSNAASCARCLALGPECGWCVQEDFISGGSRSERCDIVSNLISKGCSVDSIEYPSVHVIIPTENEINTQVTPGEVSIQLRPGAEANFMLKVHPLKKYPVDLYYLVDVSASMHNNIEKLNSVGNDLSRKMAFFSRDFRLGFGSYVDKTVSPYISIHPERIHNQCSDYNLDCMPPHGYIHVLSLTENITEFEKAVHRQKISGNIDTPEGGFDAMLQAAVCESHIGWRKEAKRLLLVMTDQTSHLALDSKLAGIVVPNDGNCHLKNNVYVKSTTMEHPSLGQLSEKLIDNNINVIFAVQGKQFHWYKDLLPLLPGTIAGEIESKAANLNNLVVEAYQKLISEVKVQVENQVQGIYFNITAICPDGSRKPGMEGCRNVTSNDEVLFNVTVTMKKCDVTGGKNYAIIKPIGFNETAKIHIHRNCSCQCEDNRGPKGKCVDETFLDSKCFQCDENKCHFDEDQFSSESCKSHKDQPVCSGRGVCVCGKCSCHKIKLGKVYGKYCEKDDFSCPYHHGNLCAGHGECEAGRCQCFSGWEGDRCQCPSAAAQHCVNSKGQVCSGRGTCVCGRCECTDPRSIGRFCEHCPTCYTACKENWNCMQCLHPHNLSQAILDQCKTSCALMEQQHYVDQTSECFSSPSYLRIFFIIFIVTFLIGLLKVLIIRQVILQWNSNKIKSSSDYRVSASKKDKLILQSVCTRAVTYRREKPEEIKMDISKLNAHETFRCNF

B1: ADWA16 (antibody, V domains shown)
VH: QVQLQQSGAELAKPGASMKMSCKASGYTFSSYWIYWVKQRPGQGLEWIGYINPTTGYTEYNQKFRDKATLTADKSSNTAYMQLSSLTSEDSAVYYCATEGGNWEDYWGQGTTLTVSS
VL: DIQMTQTTSSLSASLGDRVTISCRASQDISNYLNWYQQKPDGTVKLLIYYTSRLYSGVPSRFSGSGSGTDYSLTISNLEPKDIATYYCQQFSELPRTFGGGTKLEIK
inhibition of adhesion of L229 cells expressing αvβ8 to TGFb1 LAP (potency against ADWA11): > 10 fold
